Entries after “also recorded” stand apart in the source; their conditions may differ.
B1: Mdh2-MGA3: NAD-dependent methanol dehydrogenase encoded by chromosomal gene mdh2 of B. methanolicus MGA3, SEQ ID NO. 2 (protein)
chain: MTNTQSAFFMPSVNLFGAGSVNEVGTRLADLGVKKALLVTDAGLHGLGLSEKISSIIRAAGVEVSIFPKAEPNPTDKNVAEGLEAYNAENCDSIVTLGGGSSHDAGKAIALVAANGGKIHDYEGVDVSKEPMVPLIAINTTAGTGSELTKFTIITDTERKVKMAIVDKHVTPTLSINDPELMVGMPPSLTAATGLDALTHAIEAYVSTGATPITDALAIQAIKIISKYLPRAVANGKDIEAREQMAFAQSLAGMAFNNAGLGYVHAIAHQLGGFYNFPHGVCNAVLLPYVCRFNLISKVERYAEIAAFLGENVDGLSTYDAAEKAIKAIERMAKDLNIPKGFKELGAKEEDIETLAKNAMKDACALTNPRKPKLEEVIQIIKNAM
modifications: Bacillus methanolicus MGA3
B2: Mdh-MGA3: previously reported plasmid pBM19-encoded NAD-dependent methanol dehydrogenase of B. methanolicus MGA3, SEQ ID NO. 8 (protein)
chain: MTTNFFIPPASVIGRGAVKEVGTRLKQIGAKKALIVTDAFLHSTGLSEEVAKNIREAGVDVAIFPKAQPDPADTQVHEGVDVFKQENCDSLVSIGGGSSHDTAKAIGLVAANGGRINDYQGVNSVEKPVVPVVAITTTAGTGSETTSLAVITDSARKVKMPVIDEKITPTVAIVDPELMVKKPAGLTIATGMDALSHAIEAYVAKGATPVTDAFAIQAMKLINEYLPKAVANGEDIEAREKMAYAQYMAGVAFNNGGLGLVHSISHQVGGVYKLQHGICNSVNMPHVCAFNLIAKTERFAHIAELLGENVAGLSTAAAAERAIVALERINKSFGIPSGYAEMGVKEEDIELLAKNAYEDVCTQSNPRVPTVQDIAQIIKNAM
modifications: Bacillus methanolicus MGA3
B3: Mdh3-MGA3: NAD-dependent methanol dehydrogenase encoded by chromosomal gene mdh3 of B. methanolicus MGA3, SEQ ID NO. 4 (protein)
chain: MKNTQSAFYMPSVNLFGAGSVNEVGTRLAGLGVKKALLVTDAGLHSLGLSEKIAGIIREAGVEVAIFPKAEPNPTDKNVAEGLEAYNAENCDSIVTLGGGSSHDAGKAIALVAANGGTIHDYEGVDVSKKPMVPLIAINTTAGTGSELTKFTIITDTERKVKMAIVDKHVTPTLSINDPELMVGMPPSLTAATGLDALTHAIEAYVSTGATPITDALAIQAIKIISKYLPRAVANGKDIEAREQMAFAQSLAGMAFNNAGLGYVHAIAHQLGGFYNFPHGVCNAILLPHVCRFNLISKVERYAEIAAFLGENVDGLSTYEAAEKAIKAIERMARDLNIPKGFKELGAKEEDIETLAKNAMNDACALTNPRKPKLEEVIQIIKNAM
modifications: Bacillus methanolicus MGA3

Legend:
[1] = In vivo Mdh activity in cell suspensions of recombinant E. coli (formaldehyde accumulating in supernatant); assay type: cell-based; conditions: E. coli cell suspension
Source text: The genes coding for Mdh and the Mdh activator protein Act were amplified from pET21a-plasmids harboring genes from B. methanolicus strains MGA3 (mdh-MGA3, mdh2-MGA3, mdh3-MGA3 and act-MGA3) and PB1 (mdh-PB1, mdh1-PB1 and mdh2-PB1). The genes were then cloned either into the pSEVA424 plasmid (mdh genes) or in the pSEVA131 plasmid (act gene). For cloning of mdh-MGA3, mdh-PB1, mdh1-PB1 and act-MGA3, EcoRI and HindIII restrictions sites were used, while mdh2-MGA3, mdh2-PB1 and mdh3-MGA3 were cloned by using EcoRI and PstI restriction sites. The resulting expression vectors were transformed into electrocompetent wt E. coli K-12 (BW25113) and into E. coli K-12 (BW25113) with a deleted frmA gene.
Expression Experiments For expression experiments, the cells were cultivated in either Luria-Bertani (LB) medium for in vitro assays or in M9 medium for in vivo assays both containing 20 μg/ml streptomycin for pSEVA424. When Act was co-expressed the medium was supplemented with 100 μg/ml ampicillin. Expression was induced when cells reached OD 0.5 (for in vitro tests) or OD 1 (for in vivo tests) by adding 0.1 mM IPTG (final concentration) for 6 hours. Cells were then harvested by centrifugation. For in vitro assays, crude cell extract was prepared by lysing the cells in a French press following ultracentrifugation. Alternatively, cells were resuspended in M9-medium without glucose for in vivo activity measurements. Enzyme Assays
In vivo measurements of Mdh activity: For determination of Mdh activity in cell suspensions, cells were harvested after IPTG induction, washed and resuspended in M9-medium without glucose and IPTG. OD600 was set to 1 for normalization. […] The assay was started by addition of 1 M methanol and subsequent measurement of accumulating formaldehyde in the supernatant resulting from the methanol dehydrogenase catalyzed oxidation of methanol. The calculated activities were based on the assumption that 1 l of an OD1 culture contains 0.3 g biomass of which 50% is protein.

[2] = Heat stability: pre-incubation of purified MDHs at 45° C. or 60° C. prior to the enzyme assay; assay type: biochemical; conditions: preincubation at 60° C.; compared to the remaining MDHs
Protocol: FIG. 5. (A) Temperature stability of MGA3 Mdh, Mdh2 and Mdh3 was tested in vitro. Enzymes were incubated at 45° C. or at 60° C. prior to the enzyme assay. (B) Temperature stability of PB1 Mdh, Mdh1 and Mdh2 was tested in vitro. Enzymes were incubated at 45° C. or at 60° C. prior to the enzyme assay.
The heat stability of the six MDHs was tested by pre-incubation of the proteins at 45° C. and 60° C. and samples were taken at different time points for enzyme assays. As expected, all enzymes retained essentially all catalytic activity upon preincubations at 45° C. (FIG. 5). […] A selection of the experiments was repeated in the presence of equal amounts of purified Act, and this had no effect on temperature stability for any of the MDHs (data not shown).

[3] = Substrate specificity of purified MDH proteins on alternative alcohols; assay type: biochemical; conditions: all alternative alcohol substrates
Protocol: FIG. 3. Catalytic activities of purified Mdh (black), Mdh2 (dark grey) and Mdh3 (light grey) on various alcohols (200 mM) tested in vitro. (A) Substrate specificity was analysed for MDHs from B. methanolicus MGA3 in vitro. Alcohol substrates were used at concentrations of 500 mM except for pentanol (300 mM) and hexanol (50 mM). The data were calculated from the mean value from two experiments which were done in triplicate. (B) Substrate specificity for MDHs from B. methanolicus PB1 was analysed in vitro. Alcohol substrates were used at concentrations of 500 mM except for pentanol (300 mM) and hexanol (50 mM). The data were calculated from the mean value from two experiments which were done in triplicate.
Alcohol dehydrogenase activities were measured spectrophotometrically essentially as described previously (Hektor, Kloosterman et al. (2002) Chem 277(49): 46966-46973) and the reaction mixture contained: 100 mM Glycine-KOH pH 9.5 (unless otherwise stated), 5 mM MgSO4, 0.5 mM NAD^+ and 500 mM alcohol (methanol, ethanol, propanol, 1,3-propanediol, or butanol). NAD^+ was substituted with equal concentrations of NADP^+, FMN^+, and FAD^+, when indicated. […] The reactions were started by addition of 5-40 μg of the purified MDH proteins, and the production of NADH was monitored at 340 nm for 4 minutes. […]

Row | Molecule | In vivo activity ([1]; 37° C., +Act) [mU/mg] | In vivo activity ([1]; 37° C., −Act) [mU/mg] | In vivo activity ([1]; 42° C., +Act) [mU/mg] | In vivo activity ([1]; 42° C., −Act) [mU/mg] | temperature stability in vitro (in words) [2] | catalytic activity on alternative alcohols compared with the remaining MDHs [3]
1 | B1 | 9 | 32 | 11.3 | 45 |  | 
2 | B2 | 1 | 1 | 1 | 3 | only moderate negative effects | 
3 | B3 | 11 | 24 | 24 | 31 | Higher Temperature Stabilities; also recorded: improved thermostability | significantly higher catalytic activity than the remaining enzymes
